One may read the Kd as the constant that tells how readily two partners part at equilibrium. Low readings indicate tighter binding, high ones weaker binding. What is called koff is a measure of how fast the partners let go of each other. A high value points to a short-lived complex. As usually defined, the kon is the rate constant with which the complex forms. Low values mean slower complex formation, high ones faster complex formation.

These results are taken from PMC5378893 (Scientific Reports, 2015).

The chains are these.
B1: GH2-75 IgG (antibody, V domains shown)
VH: EVQLVESGGGLVQPGGSLRLSCAASGSTIGNSGIHWVRQAPGKGLEWVAYIGPYGGYTSYADSVKGRFTISADTSKNTAYLQMNSLRAEDTAVYYCARFDDYHWDGMDYWGQGTLVTVSS
VL: DIQMTQSPSSLSASVGDRVIITCRASQDVSGYVAWYQQKPGKAPKLLIYSSGVPSRFSGSGSGTDFTLTISSLQPEDFATYYCQQYYNWPVTFGQGTKVEIK
notes: source: HEK293-F, transient transfection, purified (Protein A, Superdex 200)
B2: GH2-21 IgG (antibody, V domains shown)
VH: EVQLVESGGGLVQPGGSLRLSCAASGFTINDYSIHWVRQAPGKGLEWVASIWPFGGSTSYADSVKGRFTISADTSKNTAYLQMNSLRAEDTAVYYCARFNYWIGIIMDYWGQGTLVTVSS
VL: DIQMTQSPSSLSASVGDRVTITCRASQDVSDNVAWYQQKPGKAPKLLIYWATGLYSGVPSRFSGSGSGTDFTLTISSLQPEDFATYYCQQYYGFPLTFGQGTKVEIK
notes: as for B1
B3: GH2-61 IgG (antibody, V domains shown)
VH: EVQLVESGGGLVQPGGSLRLSCAASGFTINNWGIHWVRQAPGKGLEWVAGIWPYGGYTYYADSVKGRFTISADTSKNTAYLQMNSLRAEDTAVYYCARFYNHHGGVMDYWGQGTLVTVSS
VL: B2 VL with S30G, D31S, Y49S, A51S, G53S, Y92G, F94W, L96I
notes: as for B1
B4: GH2-42 IgG (antibody, V domains shown)
VH: B3 VH with N30S, W52G, Y59S, Y100G, N101F, H102Y, H103F, G104D, V106I
VL: B2 VL with D31S, N32G, Y49S, W50G, A51P, G93D, F94W, E105K, I106R, K107G
notes: as for B1
B5: GH2-65 IgG (antibody, V domains shown)
VH: EVQLVESGGGLVQPGGSLRLSCAASGFTIDDWGIHWVRQAPGKGLEWVAWIWPYWGYTFYADSVKGRFTISADTSKNTAYLQMNSLRAEDTAVYYCARFLDWNNNWMDYWGQGTLVTVSS
VL: B2 VL with D31G, N32W, Y49S, W50S, T52S, G53F, G93D, L96V
notes: as for B1
B6: GH2-59 IgG (antibody, V domains shown)
VH: EVQLVESGGGLVRPGGSLRLSCAASGFTIGDWYIHWVRQAPGKGLEWVAGIGPYWGYTSYADSVKGRFTISADTSKNTAYLQMNSLRAEDTAVYYCARFVGDVWHDMDYWGQGTLVAVSS
VL: B2 VL with D31G, N32G, Y49S, A51T, T52G, G53S, Y91W, Y92S, G93D, L96I
notes: as for B1
B7: GH2-23 IgG (antibody, V domains shown)
VH: EVQLVESGGGLVQPGGSLRLSCAASGFTINGGGIHWVRQAPGKGLEWVAFIGPFGGSTFYADSVKGRFTISADTSKNTAYLQMNSLRAEDTAVYYCARFFGGNIHVMDYWGQGTLVTVSS
VL: B2 VL with S30F, D31W, N32G, Y49S, A51S, T52A, G53S, Y92F, G93S, L96F
notes: as for B1
B8: GH2-7 IgG (antibody, V domains shown)
VH: EVQLVESGGGLVQPGGSLRLSCAASGFTIDDYFIHWVRQAPGKGLEWVAGIGPSWGYTFYADSVKGRFTISADTSKNTAYLQMNSLRAEDTAVYYCARFGHNFVNGMDYWGQGTLVTVSS
VL: B2 VL with D31G, N32W, Y49S, W50G, A51T, T52A, G93D, L96V
notes: as for B1
B9: GH2-72 IgG (antibody, V domains shown)
VH: EVQLVESGGGLVQPGGSLRLSCAASGFTISNGGIHWVRQAPGKGLEWVAYIWPSGGYTFYADSVKGRFTISADTSKNTAYLQMNSLRAEDTAVYYCARFFNNDWIGMDYWGQGTLVTVSS
VL: B2 VL with S30G, D31Y, N32F, Y49S, W50G, A51T, G53W, Y92S, G93N, F94W
notes: as for B1
B10: GH2-66 IgG (antibody, V domains shown)
VH: B5 VH with D30G, D31N, W50Y, Y57F, F59Y, N104L, N105L
VL: B2 VL with S30Y, D31S, N32Y, Y49S, W50Y, T52S, G93N, F94S, L96I
notes: as for B1
B11: GH2-36 IgG (antibody, V domains shown)
VH: B1 VH with S27F, N31G, S32G, D100H, Y102H, H103I, W104G, D105G, G106I
VL: B2 VL with S30N, D31S, K39E, W50F, A51S, T52S, G93N, F94W
notes: as for B1
B12: GH2-78 IgG (antibody, V domains shown)
VH: B3 VH with W52G, Y59S, Y100G, N101V, H102I, H103I, G104D, V106I
VL: B2 VL with S30N, D31N, N32S, Y49S, A51P, G93S, F94W, L96I
notes: as for B1
B13: GH2-54 IgG (antibody, V domains shown)
VH: EVQLVESGGGLVQPGGSLRLSCAASGFTISDGSIHWVRQAPGKGLEWVAFIGPYWGFTYYADSVKGRFTISADTSKNTAYLQMNSLRAEDTAVYYCARFVNWVHYGMDYWGQGTLVTVSS
VL: DIQMTQSPSSLSASVGDRVTITCRASQDVNDNVAWYQQKPGKAPKLLIFGSSSLYSGVPSRFSGSGSGTDFTLTISSLQPEDFATYYCQQGWNYPFTFGQGTKVEIK
notes: as for B1
B14: GH2-40 IgG (antibody, V domains shown)
VH: B3 VH with N31S, G50W, W52G, G55W, Y57F, Y59S, Y100D, N101G, H103F, G104D
VL: DIQMTQSPSSLSASVGDRVTITCRASQDVNNGVAWYQQKPGKAPKLLISGTPWLYSGVPSRFSGSGSGTDFTLTISSLQPEDFATYYCQQYFDWPLTFGQGTKVEIK
notes: as for B1
B15: GH2-60 IgG (antibody, V domains shown)
VH: B3 VH with N30S, N31D, W32F, G55W, Y100W, H102I, H103Y, G104W, G105N
VL: B14 VL with S7G, N30G, N31S, G32W, G50S, T51P, W53S, Y91G, W94S, L96I
notes: as for B1

Positions count from the first letter of the chain named.

The assay deals with T1, extracellular domain (ECD) of human epidermal growth factor receptor 2 (HER2) (Homo sapiens, UniProt P04626).
T1 construct: human epidermal growth factor receptor 2 (HER2), extracellular domain; also called HER2/ECD
Put plainly: SPR; BIAcore T200; HER2/ECD immobilised on a CM5 chip by amine coupling to 1000 RU; IgG flowed in PBST (0.05% Tween 20) at 30 uL/min; regeneration 10 mM glycine pH 1.5; global fit to a 1:1 binding model. To be noted: both partners purified. A general note: In SPR one partner is held on a chip, and binding of the other changes the refractive index at the surface.
Turning to B1, the Kd was 0.177 nM, the koff worked out at 0.000149 s⁻¹ and the kon was 840000 M⁻¹ s⁻¹.

B2 returned a Kd of 1.4 nM, a koff of 0.000623 s⁻¹ and a kon of 444000 M⁻¹ s⁻¹.

B3 displayed a Kd of 0.27 nM, a koff of 0.000104 s⁻¹ and a kon of 387000 M⁻¹ s⁻¹.

In the case of B4, the Kd turned out to be 0.169 nM, the dissociation rate constant (koff) was 0.000235 s⁻¹ and the kon amounted to 1.39e+06 M⁻¹ s⁻¹.

The molecule B5 showed a Kd of 31.8 nM, a koff of 0.0111 s⁻¹ and a kon of 350000 M⁻¹ s⁻¹.

As to B6, binding was put at a Kd of 6.02 nM, the koff is 0.000288 s⁻¹ and the kon was found to be 47800 M⁻¹ s⁻¹.

B7 came in with a Kd of 0.827 nM, a koff of 0.00018 s⁻¹ and an on-rate constant (kon) of 217000 M⁻¹ s⁻¹.

On to B8, for which the Kd was determined as 9.84 nM, the koff is 0.0608 s⁻¹ and the kon was 6.18e+06 M⁻¹ s⁻¹.

B9: the affinity, expressed as Kd, was 11.9 nM; the koff is 10.9 s⁻¹; the kon is 9.15e+08 M⁻¹ s⁻¹.

The molecule B10 displayed a Kd of 54.5 nM, a koff of 0.328 s⁻¹ and a kon of 6.03e+06 M⁻¹ s⁻¹.

On to B11, for which the Kd came to 8.85 nM, the koff amounted to 7.7 s⁻¹ and the kon was 8.68e+08 M⁻¹ s⁻¹.

B12 gave a Kd of 49.4 nM, a koff of 0.00163 s⁻¹ and a kon of 33000 M⁻¹ s⁻¹.

Turning to B13, the Kd amounted to 37.9 nM, the koff worked out at 0.0128 s⁻¹ and the kon stood at 339000 M⁻¹ s⁻¹.

Take B14: the Kd was found to be 3.04 nM, the koff was 0.000217 s⁻¹ and the kon amounted to 71200 M⁻¹ s⁻¹.

The molecule B15 had a Kd of 1.53 nM, a koff of 0.00556 s⁻¹ and a kon of 3.64e+06 M⁻¹ s⁻¹.
